We go through twelve molecules from paper PMC6382169, “Molecular features of steroid-binding antidins and their use for assaying serum progesterone” (PLoS ONE, 2019).

Usually Kd stands for the concentration at which binding is half-saturated. One may read the stoichiometry N as the number of molecules, sites or subunits per partner or assembly. Broadly, the Tm is the temperature at the midpoint of the melting transition.

One data set addresses Avd. Set-up: method as in PMID 17052607. Particulars: read-out: Kd of Avd-HABA complex; cited from earlier work.
Data set [1] deals with the molecule itself. Briefly: SEC; Superdex200 Increase 5/150GL, 50 mM sodium phosphate, 650 mM NaCl, pH 7, 0.1 ml/min, 20°C; molecular weight from a standard curve of elution volumes of markers.
On the set-up of data set [2]: method as in PMID 26550684. Particulars: fluorometry-based assay, non-conjugated ligand, earlier study; read-out: Kd for progesterone; cited from earlier work.
Data set [3] in a line: Fluorometric assay: quenching of intrinsic protein fluorescence by unconjugated ligand. In kind it is binding. As to conditions: 100 nM protein, pH 7, 25°C, read-out: Kd for progesterone. How it is done: The binding affinity of the unconjugated small molecules to antidins was determined utilizing the intrinsic fluorescence originating from the aromatic amino acid residues (mainly tryptophan and tyrosine) of Avd and the fluorescence quenching caused by ligand binding. In brief, 100 nM protein samples in 50 mM NaH2PO4/Na2HPO4, 650 mM NaCl, pH 7 were excited at 280 nm, and emission was collected at 350 nm using QuantaMaster Spectrofluorometer (Photon Technology International, Inc.) with 2 nm slits. The assay was performed in a quartz cuvette with stirring at 25°C. The ligand was added to the protein sample in small aliquots (6–50 000 nM) and the fluorescence intensity was monitored after a short incubation. The dissociation constant (Kd) was determined from the resulting quenching curve using GraphPad Prism (GraphPad Software, Inc.). The data were fitted to a quadratic equation [72] for tight binding interactions, which takes ligand depletion and nonspecific binding into account (described in detail in [38]) (Fig 6).

Data set [4] concerns the molecule itself. In words: crystal structure; co-crystallised with progesterone, sitting drop vapour diffusion, 21°C; 2.80 Å; two monomers in the asymmetric unit, tetrameric biological unit.
The nature of data set [5]: Differential scanning calorimetry with progesterone. As to conditions: DSC, ligand three times the protein concentration. In kind it is binding. How it is done:
(§1) The thermal stability of the antidin sbAvd-7 in the presence and absence of ligands was analyzed using an automated VP-Capillary DSC System (Malvern, Microcal Inc.) essentially as described in [73]. Protein samples in the sodium phosphate buffer (50 mM, pH 7) containing 650 mM NaCl were degassed prior to the measurement. The protein concentration in the cell was 6.4 μM, and the molar concentration of the ligands (D-biotin (Biochemica, Fluka) and progesterone (Steraloids Inc., USA)) were three times higher (Fig 6).
(In general: Differential scanning calorimetry records heat flow against a reference as temperature is scanned.)

Data set [6] can be described thus: Differential scanning calorimetry with biotin. As to conditions: DSC, ligand three times the protein concentration. In kind it is binding. As for the experimental part:
as §1

Data set [7] in a line: Differential scanning calorimetry, no ligand. As to conditions: DSC, absence of ligand, 6.4 μM protein, pH 7. It is filed as physicochemical. As for the experimental part:
as §1

Where two headings read alike, the source gives them in different places.

As for `O=C(O)c1ccccc1N=Nc1ccc(O)cc1` [HABA, 2-(4’-hydroxybenzene)azobenzoic acid], the Kd on Avd is ~6 µM.

B1: sbAvd-7 antidin (engineered chicken avidin) (designed binder)
chain: ARKCSLTGKWTNRMNHNMTIGAVNSRGEFTGTYIASLNATSNEIKESPLHGTQNTINKRTQPTFGFTVNWKFSESTAVFTGQCFIDRNGKEVLKTMWLLRSSVNDIGDDWKATRVGINIFTRLRTQKE
notes: selected from the phage display library AvLib-4 (template sbAvd-1); Subcloned with the OmpA signal peptide and a C-terminal 6xHis-tag into pET101/D; source: E. coli BL21-AI or OverExpress C43(DE3), purified (Ni-NTA)
For B1, the “stoichiometry N” value in data set [1] stood at 4.

B2: sbAvd-4: antidin with RMNH at 13-16 and PYLS at positions 35-38; from AvLib-3 (protein, UniProt P02701 25-152, looked up, variant D13R L14M G15N S16H T35P A36Y V37L T38S)
Avidin: ARKCSLTGKWTNRMNHNMTIGAVNSRGEFTGTYIPYLSATSNEIKESPLHGTQNTINKRTQPTFGFTVNWKFSESTTVFTGQCFIDRNGKEVLKTMWLLRSSVNDIGDDWKATRVGINIFTRLRTQKE
On to B2, for which the Kd in data set [2] is 135 nM.

B3: sbAvd-5: antidin with RMNH at 13-16 and VPHP at positions 35-38; from AvLib-3 (protein, UniProt P02701 25-152, looked up, variant D13R L14M G15N S16H T35V A36P V37H T38P)
Avidin: ARKCSLTGKWTNRMNHNMTIGAVNSRGEFTGTYIVPHPATSNEIKESPLHGTQNTINKRTQPTFGFTVNWKFSESTTVFTGQCFIDRNGKEVLKTMWLLRSSVNDIGDDWKATRVGINIFTRLRTQKE
Consider B3, for which the Kd in data set [2] was 108 nM.

B4: sbAvd-8: antidin with RMNH at 13-16, Y33F, A36Y, V37S, T38Y and T77A; from AvLib-4 (protein, UniProt P02701 25-152, looked up, variant D13R L14M G15N S16H Y33F A36Y V37S T38Y T77A)
Avidin: ARKCSLTGKWTNRMNHNMTIGAVNSRGEFTGTFITYSYATSNEIKESPLHGTQNTINKRTQPTFGFTVNWKFSESTAVFTGQCFIDRNGKEVLKTMWLLRSSVNDIGDDWKATRVGINIFTRLRTQKE
Consider B4, for which the Kd in data set [3] stood at 11 nM.

B5: sbAvd-2 (I117Y) antidin (engineered chicken avidin) (designed binder)
chain: ARKCSLTGKWTNRMNHNMTIGAVNSRGEFTGTYIATVNATSNEIKESPLHGTQNTINKRTQPTFGFTVNWKFSESTTVFTGQCFIDRNGKEVLKTMWLLRSSVNDIGDDWKATRVGYNIFTRLRTQKE
notes: position 37 stays V; Crystallised with progesterone; also called sbAvd-2 (I117Y) mutant
In the case of B5, the “stoichiometry N” value in data set [4] came out at 4.

B6: sbAvd-7: antidin with RMNH at 13-16, ASLN at 35-38 and T77A; from AvLib-4, progesterone panning (protein)
chain: ARKCSLTGKWTNRMNHNMTIGAVNSRGEFTGTYIASLNATSNEIKESPLHGTQNTINKRTQPTFGFTVNWKFSESTAVFTGQCFIDRNGKEVLKTMWLLRSSVNDIGDDWKATRVGINIFTRLRTQKE
modifications: left off: 6xHis, C-terminal, state not stated
notes: antidin with RMNH at 13-16, ASLN at 35-38 and T77A; from AvLib-4, progesterone panning
Regarding B6, in data set [5], the ΔTm with progesterone is 10.23 °C. Besides, the ΔTm with biotin in data set [6] turned out to be 0.27 °C. Further, in data set [7], the Tm came to 85.84 °C.

B7: sbAvd-2 (I117Y): sbAvd-2 with stabilizing mutation I117Y; co-crystallized with progesterone, PDB:5LUR (protein)
chain: ARKCSLTGKWTNRMNHNMTIGAVNSRGEFTGTYIATVNATSNEIKESPLHGTQNTINKRTQPTFGFTVNWKFSESTTVFTGQCFIDRNGKEVLKTMWLLRSSVNDIGDDWKATRVGYNIFTRLRTQKE
Turning to B7, the Kd in data set [2] is 180 nM.

B8: sbAvd-9: antidin with RMNH at 13-16, YYLP at 35-38 and T77A; from AvLib-4 (protein, UniProt P02701 25-152, looked up, variant D13R L14M G15N S16H T35Y A36Y V37L T38P T77A)
Avidin: ARKCSLTGKWTNRMNHNMTIGAVNSRGEFTGTYIYYLPATSNEIKESPLHGTQNTINKRTQPTFGFTVNWKFSESTAVFTGQCFIDRNGKEVLKTMWLLRSSVNDIGDDWKATRVGINIFTRLRTQKE
In the case of B8, the Kd in data set [3] turned out to be 13 nM.

B9: sbAvd-2: antidin with RMNH at 13-16 and ATVN at positions 35-38; from AvLib-3 (protein, UniProt P02701 25-152, looked up, variant D13R L14M G15N S16H T35A A36T T38N)
Avidin: ARKCSLTGKWTNRMNHNMTIGAVNSRGEFTGTYIATVNATSNEIKESPLHGTQNTINKRTQPTFGFTVNWKFSESTTVFTGQCFIDRNGKEVLKTMWLLRSSVNDIGDDWKATRVGINIFTRLRTQKE
With B9, the Kd in data set [2] is 111 nM.

B10: sbAvd-6: antidin with RMNH at 13-16 and VSSN at positions 35-38; from AvLib-3 (protein, UniProt P02701 25-152, looked up, variant D13R L14M G15N S16H T35V A36S V37S T38N)
Avidin: ARKCSLTGKWTNRMNHNMTIGAVNSRGEFTGTYIVSSNATSNEIKESPLHGTQNTINKRTQPTFGFTVNWKFSESTTVFTGQCFIDRNGKEVLKTMWLLRSSVNDIGDDWKATRVGINIFTRLRTQKE
As to B10, in data set [2], the Kd was 117 nM.

B11: hbAvd-4: antidin S16A, Y33F, T40P, F72A, S73Y, S75Y, N118A; from AvLib-5, hydrocortisone panning (protein, UniProt P02701 25-152, looked up, variant S16A Y33F T40P F72A S73Y S75Y N118A)
Avidin: ARKCSLTGKWTNDLGANMTIGAVNSRGEFTGTFITAVTAPSNEIKESPLHGTQNTINKRTQPTFGFTVNWKAYEYTTVFTGQCFIDRNGKEVLKTMWLLRSSVNDIGDDWKATRVGIAIFTRLRTQKE
As to B11, the Kd in data set [3] is 39 nM.
